In patent US5726291, “Amylase inhibitors” (Nisshin Flour Milling Co., Ltd., dated 1998):

T1: human pancreatic α-amylase (human, UniProt P04746)
T1 sequence: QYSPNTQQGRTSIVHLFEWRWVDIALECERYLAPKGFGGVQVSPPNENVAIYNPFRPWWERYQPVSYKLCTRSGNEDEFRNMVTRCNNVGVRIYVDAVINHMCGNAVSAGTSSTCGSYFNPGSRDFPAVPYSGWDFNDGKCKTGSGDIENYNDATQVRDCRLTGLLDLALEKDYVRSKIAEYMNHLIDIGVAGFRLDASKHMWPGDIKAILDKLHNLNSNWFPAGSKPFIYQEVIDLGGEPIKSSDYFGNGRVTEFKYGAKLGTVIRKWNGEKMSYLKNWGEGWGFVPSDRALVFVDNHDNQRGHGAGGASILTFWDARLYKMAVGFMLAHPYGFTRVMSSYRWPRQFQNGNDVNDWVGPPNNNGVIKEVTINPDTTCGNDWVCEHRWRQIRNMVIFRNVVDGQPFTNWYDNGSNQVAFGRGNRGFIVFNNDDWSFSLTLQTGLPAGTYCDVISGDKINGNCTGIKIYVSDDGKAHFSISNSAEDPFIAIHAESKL


Molecular target: T1, human pancreatic α-amylase
Test: cell-based or functional assay

| Binder | Amylase inhibitory activity (U/mg) |
| --- | --- |
| Protein (A) (other) SGPWMCYPGYAFKVPALPGCRPVLKLQCNGSQVPEAVLRDCCQQLADISEWCRCGALYSMLDSMYKEHGVQEGQAGTGAFPSCRREVVKLTAASITAVCKLPIVIDASGDGAYVCKGVAAYP | 20500 U/mg |
| Protein 0.26 AI (other) SGPWMCYPGYAFKVPALPGCRPVLKLQCNGSQVPEAVLRDCCQQLADISEWCRCGALYSMLDSMYKEHGVQEGQAGTGAFPSCRREVVKLTAASITAVCKLPIVIDASGDGAYVCKGVAAYPDA | 26100 U/mg |
| Protein 0.19 AI (other) SGPWMCYPGQAFQVPALPACRPLLRLQCNGSQVPEAVLRDCCQQLAHISEWCRCGALYSMLDSMYKEHGAQEGQAGTGAFPRCRREVVKLTAASITAVCRLPIVVDASGDGAYVCKDVAAYPDA | 20300 U/mg |
| Protein 0.53 AI (other) SGPWMCYPGQAFQVPALPGCRPLLKLQCNGSQVPEAVLRDCCQQLADISEWPRCGALYSMLDSMYKEHGVSEGQAGTGAFPSCRREVVKLTAASITAVCRLPIVVDASGDGAYVCKDVAAYPDA | 3940 U/mg |
| Protein 0.28 AI (other) SGPWSWCNPATGYKVSALTGCRAMVKLQCVGSQVPEAVLRDCCQQLADINNEWCRCGDLSSMLRAVYQELGVREGKEVLPGCRKEVMKLTAASVPEVCKVPIPNPSGDRAGVCYGDWCAYPDV | 840 U/mg |
